These results are taken from paper PMC12204359 (2025).

B6: clathrin heavy chain minimal ankle region (CHC^ankle, aa 358–574) (domain or fragment)
chain: AGAEELFARKFNALFAQGNYSEAAKVAANAPKGILRTPDTIRRFQSVPAQPGQTSPLLQYFGILLDQGQLNKYESLELCRPVLQQGRKQLLEKWLKEDKLECSEELGDLVKSVDPTLALSVYLRANVPNKVIQCFAETGQVQKIVLYAKKVGYTPDWIFLLRNVMRISPDQGQQFAQMLVQDEEPLADITQIVDVFMEYNLIQQCTAFLLDALKNNR
B7: biotinylated Avi-tagged ankle region of clathrin (aa 358–574) (domain or fragment)
chain: AGAEELFARKFNALFAQGNYSEAAKVAANAPKGILRTPDTIRRFQSVPAQPGQTSPLLQYFGILLDQGQLNKYESLELCRPVLQQGRKQLLEKWLKEDKLECSEELGDLVKSVDPTLALSVYLRANVPNKVIQCFAETGQVQKIVLYAKKVGYTPDWIFLLRNVMRISPDQGQQFAQMLVQDEEPLADITQIVDVFMEYNLIQQCTAFLLDALKNNR
modifications: biotin
B8: K507A-CHC^ankle (domain or fragment)
chain: AGAEELFARKFNALFAQGNYSEAAKVAANAPKGILRTPDTIRRFQSVPAQPGQTSPLLQYFGILLDQGQLNKYESLELCRPVLQQGRKQLLEKWLKEDKLECSEELGDLVKSVDPTLALSVYLRANVPNKVIQCFAETGQVQKIVLYAKAVGYTPDWIFLLRNVMRISPDQGQQFAQMLVQDEEPLADITQIVDVFMEYNLIQQCTAFLLDALKNNR

Assay [1] concerns the target B8. The experiment in a line: FP.
Assay [2] has as its target B6. Kind of assay: FP.
Assay [3] has as its target B7. The experiment in a line: SPR.
The target in assay [4] is B8. The experiment in a line: FP. This is another data set of the same source.
Assay [5] addresses B7. Kind of assay: SPR. For orientation: SPR reads the build-up and loss of mass on a sensor chip optically.
In the next assay the target is SP6D. The experiment in a line: FP.
Another assay has as its target P2. The experiment in a line: FP.
The target in the next assay is P1. The experiment in a line: FP.
The target of a further assay is SP3D. The experiment in a line: FP.
Assay [6] has as its target T1, SP4E (human, UniProt Q9Y6A5, two (S)-2-(4-pentenyl)alanine, stapled; FAM on the N-terminus). The experiment in a line: FP.
The next assay concerns the target SP1. Kind of assay: FP.
For a further assay, the target named is SP3E. The experiment in a line: FP.
The target of the next assay is SP6E. The experiment in a line: FP.
In another assay the target is SP2. Kind of assay: FP.
In another assay the target is Opt P3 (S558D). Kind of assay: FP.
The next assay addresses Opt P4 (pS558). Kind of assay: FP.
The target of the next assay is Opt P2 (S558E). Kind of assay: FP.
The next assay addresses Opt P7 (S558E). Kind of assay: FP.
A further assay has as its target Opt P2 (S558D). The experiment in a line: FP.
For a further assay, the target named is Opt P1 (S558D). Kind of assay: FP.
The next assay addresses Opt P8 (S558E). The experiment in a line: FP.
The target in a further assay is Opt P6 (S558E). Kind of assay: FP.
The next assay has as its target Opt P1 (S558E). The experiment in a line: FP.
For another assay, the target named is Opt P7 (pS558). The experiment in a line: FP.
Another assay deals with Opt P9 (S558D). The experiment in a line: FP.
The target in another assay is Opt P6 (pS558). Kind of assay: FP.
The next assay addresses Opt P5 (pS558). Kind of assay: FP.
The next assay addresses Opt P4 (S558E). The experiment in a line: FP.
The next assay addresses Opt P3 (pS558). Kind of assay: FP.
The target in the next assay is Opt P2 (pS558). Kind of assay: FP.
Another assay concerns the target Opt P5 (S558E). Kind of assay: FP.
In another assay the target is Opt P5 (S558D). Kind of assay: FP.
For the next assay, the target named is Opt P9 (pS558). Kind of assay: FP.
The target of a further assay is Opt P3 (S558E). Kind of assay: FP.
The target in the next assay is Opt P6 (S558D). Kind of assay: FP.
The target of another assay is Opt P1 (pS558). Kind of assay: FP.
The target of another assay is Opt P4 (S558D). Kind of assay: FP.
Another assay has as its target Opt P7 (S558D). Kind of assay: FP.
The target of the next assay is Opt P8 (S558D). The experiment in a line: FP.
For another assay, the target named is Opt P9 (S558E). The experiment in a line: FP.
The target in a further assay is Opt P8 (pS558). The experiment in a line: FP.
The target in assay [7] is T1, SP4E. The experiment in a line: SPR.
The target in assay [8] is B6. The experiment in a line: FP.

Where two headings read alike, the source gives them in different places. Positions of bridges follow the written chain, without caps; N, C: chain ends. Non-standard residues stand in square brackets, D forms with d. Primed or numbered codes have the meaning given here. No end group written: not given here. FAM″ = 5(6)-carboxyfluorescein label; pS = N[C@@H](COP(=O)(O)O)C(=O)O; FAM = 5(6)-carboxyfluorescein; S5 = C=CCCC[C@](C)(N)C(=O)O; PEG3′ = PEG3 linker

B1: SP5D (peptide)
chain: {FAM″}-KESALRKQDLY[S5]KFD[S5]LLRDS-NH2
modifications: staple 12-16
Take B1: the values for the Kd (in the assay with K507A-CHC^ankle [1]; in assay [2]) were 152 µM and 361 µM, respectively.

B2: Opt PEG3 SP TACC3 (designed binder)
chain: {FAM-PEG3′}-KESALRK[S5]ELL[S5]EFDPLFRDS
modifications: staple 8-12
On to B2, for which the Kd in the assay with K507A-CHC^ankle [1] was 0.178 µM; in assay [2], 0.12 µM.

B3: negative control SP TACC3 (F563A & L566A) (peptide)
chain: {FAM″}-KESALRK[S5]ELL[S5]EADPAFRDS-NH2
modifications: staple 8-12
Molecule B3 registered a Kd in the assay with K507A-CHC^ankle [1] of 280 µM.

B4: SP4D (peptide)
chain: KESALRKXDLYXKFDPLLRDS
modifications: N-terminal FAM; X557 and X561 are (S)-2-(4-pentenyl)alanine joined as i,i+4 hydrocarbon staple; staple position and limits inferred from Opt SP TACC3 (KESALRK*ELL*…), exact sequence only in Fig 3A
Take B4: the values for the Kd (in the assay with K507A-CHC^ankle [1]; in assay [2]) were 5.2 µM and 39 µM, respectively.

B5: FAM-pTACC3 CID peptide (aa 549–570), phosphorylated at S558 (peptide)
peptide: {FAM}-FKESALRKQ[pS]LYLKFDPLLRDS
As for B5, the koff in assay [3] was 1.4 s⁻¹. For the same molecule, the Kd in the assay with K507A-CHC^ankle [4] came to 22 µM; in [5], 23 µM.

Consider B6, for which the Kd was determined as 74 µM with SP6D; 160 µM with P2; 105 µM with P1; 92 µM with SP3D; 34 µM in the assay with SP4E [6]; 22 µM with SP1. Also, the Kd in the assay with SP3E came to 78 µM; with SP6E it was 54 µM; in the assay with SP2, 145 µM; with Opt P3 (S558D), 22.8 µM; with Opt P4 (pS558) it was 7.1 µM; with Opt P2 (S558E), 1.3 µM. Moreover, the Kd came to 10.1 µM in the assay with Opt P7 (S558E); 3.3 µM with Opt P2 (S558D); 6.3 µM with Opt P1 (S558D); 13 µM with Opt P8 (S558E); 2.8 µM in the assay with Opt P6 (S558E); 2.4 µM in the assay with Opt P1 (S558E). For the same molecule, the Kd is 4.4 µM with Opt P7 (pS558); 24.5 µM in the assay with Opt P9 (S558D); 1.8 µM in the assay with Opt P6 (pS558); 5 µM in the assay with Opt P5 (pS558); 6.1 µM with Opt P4 (S558E); 3.3 µM in the assay with Opt P3 (pS558). The Kd in the assay with Opt P2 (pS558) was 1.2 µM; with Opt P5 (S558E) it was 6.7 µM; in the assay with Opt P5 (S558D), 16 µM; with Opt P9 (pS558), 9.5 µM; with Opt P3 (S558E), 13 µM; with Opt P6 (S558D) it was 5.5 µM. Also, the dissociation constant Kd worked out at 1.7 µM in the assay with Opt P1 (pS558); 6.5 µM in the assay with Opt P4 (S558D); 16.2 µM in the assay with Opt P7 (S558D); 30 µM with Opt P8 (S558D); 23.4 µM in the assay with Opt P9 (S558E); 15 µM with Opt P8 (pS558).

As for B7, in the assay with SP4E [7], the Kd turned out to be 2.8 µM and the koff was determined as 0.46 s⁻¹.

Regarding B8, the Kd is 44 µM with SP6D; 19 µM with P2; 37 µM with P1; 23 µM in the assay with SP3D; 3.7 µM with SP4E [6]; 22 µM with SP3E. Further, the Kd turned out to be 53 µM with SP6E and 23 µM with SP2.

B9: WT TACC3 S558D (peptide)
chain: {FAM}-KESALRKQDLYLKFDPLLR
With B9, the Kd in assay [8] worked out at 339 µM.

B10: Opt SP TACC3 (designed binder)
chain: {FAM}-KESALRKLELLLEFDPLFRDS
modifications: staple (positions not given here); not fully specified (residues 8, 12, bridges); also: (S)-2-(4-pentenyl)alanine at 557 and 561 not placed in the given letters
Regarding B10, the Kd with K507A-CHC^ankle [1] was found to be 0.19 µM; in [2], 0.136 µM; in [5], 0.03 µM. The koff in assay [3] was 0.04 s⁻¹.

B11: SP5E (peptide)
chain: {FAM″}-KESALRKQELY[S5]KFD[S5]LLRDS-NH2
modifications: staple 12-16
As for B11, the figures for the Kd (with K507A-CHC^ankle [1]; in [2]) were 146 µM and 234 µM, respectively.

Usually Kd stands for the equilibrium constant for the complex coming apart. As a reminder, the koff is the rate constant with which the complex falls apart.
